Experimental data reported in US20260201068A1 (UNIVERSIT DE GEN VE, published 2026).

What was measured:
[1] = target: human PTPRZ1 extracellular portion (domains 1 plus 2) knocked in and shown on Ge518_PTPRZ1-KI cells (human) (UniProt P23471); test: cell-based or functional assay
[2] = target: T1, human PTPRZ1 extracellular portion (domains 1 plus 2) knocked in and shown on Ge518_PTPRZ1-KI cells (human, UniProt P23471 25-413, limits assumed); test: flow cytometry on Ge518_PTPRZ1-KI cells, scFv conjugated to rabbit Fc, anti-rabbit IgG AlexaFluo488
T1 construct: domain: extracellular portion (domains 1 plus 2); parental Ge518 has low PTPRZ1 expression; also called receptor-type tyrosine-protein phosphatase zeta
T1 sequence (P23471 25-413 limits assumed): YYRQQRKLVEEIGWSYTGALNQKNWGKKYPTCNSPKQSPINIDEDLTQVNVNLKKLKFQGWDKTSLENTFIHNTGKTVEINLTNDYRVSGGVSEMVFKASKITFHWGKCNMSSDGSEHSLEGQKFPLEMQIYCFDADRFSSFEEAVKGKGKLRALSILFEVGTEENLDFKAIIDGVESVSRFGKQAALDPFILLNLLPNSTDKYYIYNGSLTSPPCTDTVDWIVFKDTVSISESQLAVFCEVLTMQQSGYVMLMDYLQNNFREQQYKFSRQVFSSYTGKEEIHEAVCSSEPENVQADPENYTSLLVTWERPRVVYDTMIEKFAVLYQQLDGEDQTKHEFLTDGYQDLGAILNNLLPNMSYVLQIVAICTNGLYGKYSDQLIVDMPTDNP
Text: The GBM cell line Ge518, obtained in our lab from a patient tumor resection, was used as a tumor model to evaluate CAR T cell efficacy. As PTPRZ1 expression was low in these cells, the antigen was overexpressed by introducing (knock-in) an extracellular portion (domains 1 plus 2) of the human PTPRZ1 molecule under the EF1a promoter, using a 3rd generation LV vector with puromycin selection.

Chain of human PTPRZ1 extracellular portion (domains 1 plus 2) knocked in and shown on Ge518_PTPRZ1-KI cells (human) (P23471 25-413 limits assumed): as above

Binder | killing of Ge518 PTPRZ1-KI target cells by CAR T cells, E:T 3:1 [1] [%] | level of recognition (percent, flow cytometry) [2] [%]
anti-PTPRZ1 471_28z chimeric antigen receptor (on RNA CAR T cells) (protein, part only; not given: CD3zeta signalling domain, part only) chain, part: MAEVQLVESGGGLVQPGGSLRLSCAASGFTFSSYSMNWVRQAPGKGLEWVSYISSSSSTIYYADSVKGRFTISRDNAKNSLYLQMNSLRAEDTAVYYCARPGYGDFPGAFDIWGQGTLVTVSSGGGGSGGGGSGGGGSTQSALTQPASVSGSPGQSITISCTGTSSDVGGYNYVSWYQQHPGKAPKLMIYEVSNRPSGVSNRFSGSKSGNTASLTISGLQAEDEADYYCSSYDWATYGSVFGGGTKLTVLGAAESKYGPPCPPCPFWVLVVVGGVLACYSLLVTVAFIIFWVRSKRSRGGHSDYMNMTPRRPGPTRKHYQPYAPPRDFAAYRS | 80 | –
anti-PTPRZ1 scFv RRB473 conjugated to a rabbit Fc (Fc fusion, scFv conjugated to a rabbit Fc for flow cytometry; also called scFv 473; not shown: rabbit Fc) scFv: MAQVQLVESGGGVVQPGRSLRLSCAASGFTFSSYAMHWVRQAPGKGLEWVAVISYDGSNKYYADSVKGRFTISRDNSKNTLYLQMNSLRAEDTAVYYCARDQDDSSDAFDIWGQGTLVTVSSGGGGSGGGGSGGGGSTQSVLTQPPSVSAAPGQKVTISCSGSSSNIGNNYVSWYQQLPGTAPKLLIYDNNKRPSGIPDRFSGSKSGTSATLGITGLQTGDEADYYCGTYDYIATRAVFGGGTKLTVLGAA | – | ≥ 80
anti-PTPRZ1 scFv RRB476 conjugated to a rabbit Fc (Fc fusion, scFv conjugated to a rabbit Fc for flow cytometry; also called scFv 476; not shown: rabbit Fc) scFv: MAQVQLVESGGGVVQPGRSLRLSCAASGFTFSSYAMHWVRQAPGKGLEWVAVISYDGSNKYYADSVKGRFTISRDNSKNTLYLQMNSLRAEDTAVYYCARDQDDSSDAFDIWGQGTLVTVSSGGGGSGGGGSGGGGSTQSVLTQPPSVSAAPGQKVTISCSGSSSNIGNNYVSWYQQLPGTAPKLLIYDNNKRPSGIPDRFSGSKSGTSATLGITGLQTGDEADYYCGTWDYKVSRLVFGGGTKLTVLGAA | – | ≥ 80
anti-PTPRZ1 scFv RRB469 conjugated to a rabbit Fc (Fc fusion, Flow cytometry was done with the scFvs conjugated to a rabbit Fc, detected with anti-rabbit IgG AlexaFluo488; also called scFv 469; not shown: rabbit Fc) scFv: MAQVQLVESGGGVVQPGRSLRLSCAASGFTFSSYAMHWVRQAPGKGLEWVAVISYDGSNKYYADSVKGRFTISRDNSKNTLYLQMNSLRAEDTAVYYCARGSGYSYGPGYDAFDIWGQGTLVTVSSGGGGSGGGGSGGGGSTNFMLTQPHSVSESPGKTVTISCTRSSGSIASNYVQWYQQRPGSSPTTVIYEDNQRPSGVPDRFSGSIDSSSNSASLTISGLKTEDEADYYCQSWDPVFGVFGGGTKLTVLGAA | – | ≥ 80
anti-PTPRZ1 scFv RRB471 conjugated to a rabbit Fc (Fc fusion, scFv conjugated to a rabbit Fc for flow cytometry; not shown: rabbit Fc) scFv: MAEVQLVESGGGLVQPGGSLRLSCAASGFTFSSYSMNWVRQAPGKGLEWVSYISSSSSTIYYADSVKGRFTISRDNAKNSLYLQMNSLRAEDTAVYYCARPGYGDFPGAFDIWGQGTLVTVSSGGGGSGGGGSGGGGSTQSALTQPASVSGSPGQSITISCTGTSSDVGGYNYVSWYQQHPGKAPKLMIYEVSNRPSGVSNRFSGSKSGNTASLTISGLQAEDEADYYCSSYDWATYGSVFGGGTKLTVLGAA | – | ≥ 80
